According to the supplement of paper PMC9876800:

Tested on: peptide library, one residue held at a place counted from the S/T acceptor
Assay: relative phosphorylation of the sub-library (ratio to the mean residue at this position); higher = residue favoured
Summary of the method: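 Purified recombinant kinases, either human or orthologue constructs, were incubated in 384-well plates with biotinylated degenerate peptide sub-libraries. Each sub-library fixed one residue at one position around a central Ser/Thr. Peptides at 50 μM and 50 μM ATP spiked with γ-32P-ATP were used for 90 min under kinase-specific conditions, and spots on streptavidin membranes were phosphorimaged and quantified by densitometry. Relative sub-library phosphorylation is expressed as a ratio to the mean residue at that position.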

Chain of TSSK6, construct: Full length, human (Q9BXA6 whole entry, looked up): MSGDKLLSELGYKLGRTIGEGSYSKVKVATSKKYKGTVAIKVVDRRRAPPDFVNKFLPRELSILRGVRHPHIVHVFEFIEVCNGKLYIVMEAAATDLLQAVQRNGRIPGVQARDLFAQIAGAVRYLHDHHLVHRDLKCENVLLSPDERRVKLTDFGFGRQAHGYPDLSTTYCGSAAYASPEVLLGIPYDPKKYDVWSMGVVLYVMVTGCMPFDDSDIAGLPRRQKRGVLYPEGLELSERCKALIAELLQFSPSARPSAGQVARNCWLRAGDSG
Chain of HASPIN, construct: aa452-798, human (Q8TF76 452-798, looked up): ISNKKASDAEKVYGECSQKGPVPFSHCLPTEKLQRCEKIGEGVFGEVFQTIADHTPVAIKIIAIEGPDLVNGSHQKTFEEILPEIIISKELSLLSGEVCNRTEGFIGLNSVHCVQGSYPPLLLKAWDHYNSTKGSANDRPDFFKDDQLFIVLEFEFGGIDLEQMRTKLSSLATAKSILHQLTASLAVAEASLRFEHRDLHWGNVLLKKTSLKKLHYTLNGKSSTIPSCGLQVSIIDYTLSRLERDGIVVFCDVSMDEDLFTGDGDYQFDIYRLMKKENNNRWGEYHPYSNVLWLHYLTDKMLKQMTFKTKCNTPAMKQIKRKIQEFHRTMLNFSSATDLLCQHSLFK
Chain of CDK17, construct: Full length, human (Q00537 whole entry, looked up): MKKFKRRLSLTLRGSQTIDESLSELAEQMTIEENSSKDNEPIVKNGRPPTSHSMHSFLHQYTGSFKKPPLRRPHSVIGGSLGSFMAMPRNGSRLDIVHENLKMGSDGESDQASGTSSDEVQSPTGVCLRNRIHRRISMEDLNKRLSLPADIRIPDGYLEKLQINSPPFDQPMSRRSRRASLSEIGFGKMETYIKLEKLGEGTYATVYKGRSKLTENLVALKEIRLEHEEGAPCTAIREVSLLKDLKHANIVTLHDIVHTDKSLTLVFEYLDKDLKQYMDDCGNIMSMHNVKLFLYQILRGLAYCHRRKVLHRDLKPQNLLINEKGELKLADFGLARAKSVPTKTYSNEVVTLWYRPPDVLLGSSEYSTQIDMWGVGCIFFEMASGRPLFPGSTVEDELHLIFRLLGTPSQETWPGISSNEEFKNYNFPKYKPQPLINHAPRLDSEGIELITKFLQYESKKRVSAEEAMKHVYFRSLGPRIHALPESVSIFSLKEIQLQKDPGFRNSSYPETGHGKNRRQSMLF

RPS6KA5, construct: Full length, human (from UniProt O75582)
relative phosphorylation
Settings | at +1 | at +2 | at +3 | at +4 | at -1 | at -2 | at -3 | at -4 | at -5
A fixed | 0.772 | 0.9 | 0.834 | 0.825 | 0.783 | 0.787 | 0.718 | 0.981 | 1.04
D fixed | 0.723 | 2.19 | 1.3 | 1.63 | 0.877 | 0.316 | 0.294 | 0.639 | 0.65
E fixed | 0.84 | 1.43 | 1.27 | 1.62 | 0.544 | 0.306 | 0.314 | 0.757 | 0.597
F fixed | 1.44 | 0.986 | 1.12 | 0.863 | 0.767 | 0.4 | 0.352 | 0.778 | 0.91
G fixed | 0.633 | 0.826 | 0.988 | 1 | 0.855 | 0.675 | 0.499 | 1.31 | 1.18
H fixed | 1.04 | 1.59 | 1.35 | 1.23 | 1.16 | 1.06 | 1.18 | 1.18 | 1.03
I fixed | 1.48 | 0.676 | 0.738 | 0.713 | 0.435 | 0.272 | 0.286 | 0.694 | 0.779
K fixed | 0.616 | 0.436 | 0.674 | 0.588 | 1.57 | 1.8 | 1.18 | 1.34 | 1.2
L fixed | 1.32 | 0.95 | 1.09 | 0.777 | 1.07 | 0.444 | 0.293 | 0.807 | 1.03
M fixed | 1.49 | 0.781 | 0.981 | 0.788 | 1.04 | 0.445 | 0.39 | 1.07 | 0.962
N fixed | 0.976 | 1.27 | 0.92 | 1.2 | 1.42 | 0.693 | 0.51 | 0.909 | 0.81
P fixed | 0.292 | 0.581 | 0.98 | 1.5 | 1.63 | 0.367 | 0.588 | 1.1 | 0.923
Q fixed | 1.19 | 0.734 | 0.989 | 1.12 | 1.15 | 0.843 | 0.666 | 0.915 | 0.774
R fixed | 0.539 | 0.52 | 0.574 | 0.551 | 1.5 | 7.44 | 8.25 | 2.04 | 2.26
V fixed | 1.21 | 0.81 | 0.714 | 0.721 | 0.466 | 0.318 | 0.282 | 0.663 | 0.775
W fixed | 1.21 | 1.03 | 1.33 | 0.959 | 0.743 | 0.425 | 0.709 | 0.86 | 1.2
Y fixed | 1.25 | 1.28 | 1.16 | 0.912 | 1 | 0.4 | 0.486 | 0.952 | 0.871
pThr fixed | 1.64 | 1.88 | 1.62 | 2.88 | 0.451 | 0.325 | 0.406 | 0.697 | 0.68
pTyr fixed | 1.68 | 1.25 | 1.53 | 1.57 | 0.898 | 0.392 | 0.539 | 0.698 | 0.747

TSSK6, construct: Full length, human (from UniProt Q9BXA6)
relative phosphorylation
Settings | at +1 | at +2 | at +3 | at +4 | at -1 | at -2 | at -3 | at -4 | at -5
A fixed | 0.866 | 0.53 | 0.939 | 0.483 | 1.08 | 1.85 | 1.52 | 1.26 | 2.13
D fixed | 0.814 | 0.32 | 1.61 | 0.385 | 0.442 | 0.203 | 0.21 | 0.354 | 0.243
E fixed | 0.876 | 0.568 | 0.702 | 0.265 | 0.603 | 0.328 | 0.335 | 0.562 | 0.234
F fixed | 0.806 | 1.16 | 1.03 | 1.5 | 0.537 | 0.586 | 0.45 | 0.532 | 0.466
G fixed | 0.426 | 0.258 | 0.513 | 0.584 | 0.604 | 0.649 | 0.965 | 1.22 | 0.542
H fixed | 1.23 | 3.4 | 1.89 | 0.696 | 0.82 | 0.868 | 0.848 | 1.32 | 0.607
I fixed | 0.765 | 1.51 | 0.506 | 2.46 | 0.579 | 0.891 | 0.724 | 0.673 | 1.45
K fixed | 1.45 | 0.403 | 1.09 | 0.543 | 2.1 | 3.12 | 2.57 | 2.67 | 0.911
L fixed | 0.925 | 1.38 | 0.645 | 3.38 | 0.657 | 0.416 | 0.61 | 0.721 | 1.71
M fixed | 1.16 | 1.69 | 0.825 | 1.68 | 0.874 | 0.629 | 0.779 | 0.968 | 0.703
N fixed | 1.38 | 0.574 | 1.94 | 0.653 | 0.876 | 0.87 | 0.72 | 0.758 | 0.508
P fixed | 0.155 | 0.299 | 0.204 | 0.591 | 1.83 | 0.446 | 1.35 | 0.544 | 1.46
Q fixed | 1.56 | 0.847 | 1.02 | 0.605 | 1.35 | 1.23 | 0.962 | 0.943 | 0.999
R fixed | 1.83 | 0.499 | 1.25 | 0.506 | 2.4 | 2.11 | 3.07 | 2.22 | 1.93
V fixed | 0.932 | 0.96 | 0.59 | 1.42 | 0.804 | 1.55 | 0.773 | 0.938 | 1.73
W fixed | 0.85 | 1.08 | 1.27 | 0.677 | 0.662 | 0.518 | 0.571 | 0.641 | 0.469
Y fixed | 0.97 | 1.52 | 0.981 | 0.582 | 0.778 | 0.747 | 0.555 | 0.685 | 0.902
pThr fixed | 0.547 | 0.29 | 0.216 | 0.269 | 0.566 | 0.279 | 0.724 | 0.748 | 0.793
pTyr fixed | 0.534 | 0.459 | 0.32 | 0.268 | 0.417 | 0.427 | 0.519 | 0.447 | 0.752

CDK17, construct: Full length, human (from UniProt Q00537)
relative phosphorylation
Settings | at +1 | at +2 | at +3 | at +4 | at -1 | at -2 | at -3 | at -4 | at -5
A fixed | 0.203 | 0.683 | 0.739 | 1 | 0.979 | 1.25 | 0.977 | 0.99 | 1.07
D fixed | 0.116 | 0.603 | 0.323 | 0.54 | 0.654 | 0.496 | 0.806 | 0.95 | 0.96
E fixed | 0.109 | 0.412 | 0.294 | 0.427 | 0.49 | 0.585 | 0.902 | 1.02 | 0.845
F fixed | 0.152 | 0.697 | 0.959 | 0.828 | 0.644 | 0.742 | 0.666 | 0.802 | 0.856
G fixed | 0.781 | 0.865 | 0.862 | 1.86 | 1.93 | 0.898 | 1.62 | 1.19 | 1.01
H fixed | 0.152 | 1.16 | 0.66 | 1.14 | 0.801 | 0.831 | 0.907 | 0.98 | 1.18
I fixed | 0.157 | 0.826 | 1.48 | 0.823 | 0.251 | 0.872 | 0.68 | 0.836 | 0.806
K fixed | 0.236 | 2.09 | 0.904 | 1.32 | 1.61 | 0.701 | 0.945 | 1.34 | 1.49
L fixed | 0.17 | 1.03 | 2.01 | 0.797 | 0.689 | 0.962 | 0.675 | 0.779 | 0.98
M fixed | 0.17 | 1.02 | 1.99 | 0.99 | 1.06 | 1.13 | 0.881 | 0.822 | 0.861
N fixed | 0.174 | 1.15 | 0.854 | 0.987 | 1.03 | 1 | 1.21 | 1.37 | 1.02
P fixed | 13.6 | 0.758 | 1.66 | 0.889 | 1.69 | 3.2 | 2.12 | 1.41 | 1.06
Q fixed | 0.195 | 1 | 0.962 | 0.962 | 1.28 | 0.893 | 1.03 | 0.933 | 0.834
R fixed | 0.191 | 1.92 | 0.783 | 1.52 | 1.51 | 0.875 | 1.13 | 0.924 | 1.01
V fixed | 0.222 | 0.863 | 1.07 | 0.77 | 0.403 | 0.859 | 0.782 | 0.605 | 0.698
W fixed | 0.181 | 0.879 | 0.791 | 1.09 | 0.999 | 0.887 | 0.855 | 1.14 | 1.19
Y fixed | 0.149 | 1.05 | 0.65 | 1.06 | 0.97 | 0.824 | 0.818 | 0.907 | 1.12
pThr fixed | 0.514 | 0.699 | 0.939 | 0.451 | 0.438 | 0.909 | 1.06 | 1.04 | 0.832
pTyr fixed | 0.707 | 0.491 | 0.903 | 0.492 | 0.452 | 0.788 | 0.883 | 0.7 | 0.88

HASPIN, construct: aa452-798, human (from UniProt Q8TF76)
relative phosphorylation
Settings | at +1 | at +2 | at +3 | at +4 | at -1 | at -2 | at -3 | at -4 | at -5
A fixed | 0.379 | 1.04 | 0.824 | 0.822 | 0.515 | 2.18 | 0.883 | 0.899 | 0.836
D fixed | 0.166 | 0.469 | 0.344 | 0.766 | 0.155 | 0.679 | 0.544 | 0.634 | 0.517
E fixed | 0.161 | 0.359 | 0.28 | 0.404 | 0.158 | 0.483 | 0.577 | 0.767 | 0.526
F fixed | 0.587 | 0.877 | 0.984 | 0.829 | 0.354 | 0.76 | 0.749 | 0.936 | 0.812
G fixed | 0.467 | 0.751 | 1.02 | 1.03 | 0.615 | 1.17 | 1.1 | 0.985 | 0.887
H fixed | 0.682 | 1.36 | 1.09 | 1.14 | 0.606 | 0.783 | 1.11 | 0.964 | 1.01
I fixed | 0.779 | 0.69 | 0.652 | 0.819 | 0.286 | 0.734 | 0.693 | 0.844 | 2.68
K fixed | 5.48 | 1.95 | 1.81 | 2.09 | 1.5 | 1.39 | 1.92 | 1.39 | 1.23
L fixed | 0.621 | 0.783 | 0.797 | 0.749 | 0.294 | 0.464 | 0.694 | 1.54 | 0.645
M fixed | 0.766 | 1.56 | 0.782 | 1.01 | 0.42 | 0.47 | 0.644 | 0.933 | 0.777
N fixed | 0.295 | 0.762 | 0.801 | 0.86 | 0.427 | 0.737 | 0.941 | 0.738 | 0.763
P fixed | 0.807 | 0.559 | 0.714 | 0.801 | 0.493 | 1.83 | 1.12 | 0.987 | 1.32
Q fixed | 0.469 | 1.19 | 0.819 | 1 | 0.591 | 0.672 | 0.834 | 0.974 | 0.722
R fixed | 2.67 | 1.78 | 3.05 | 1.65 | 9.3 | 1.83 | 2.79 | 1.57 | 1.33
V fixed | 0.622 | 0.657 | 0.731 | 0.714 | 0.285 | 1.27 | 0.768 | 0.951 | 0.982
W fixed | 0.51 | 1.25 | 1.09 | 1.33 | 0.313 | 0.749 | 0.82 | 0.918 | 0.922
Y fixed | 1.54 | 0.971 | 1.21 | 0.979 | 0.683 | 0.809 | 0.807 | 0.969 | 1.05
pThr fixed | 0.315 | 0.44 | 0.466 | 0.648 | 0.379 | 1.23 | 1.14 | 0.928 | 0.991
pTyr fixed | 0.322 | 0.359 | 0.492 | 0.589 | 0.582 | 0.966 | 1.09 | 0.743 | 1.01
